# Experimental data as given in US20240018263A1.
# Assays:
# [1] = target: VH-9.7 antigen on human patient-derived glioblastoma stem-like cells (GSC lines 12.1, 22, 33, 44, 99); assay: flow cytometry on cells dissociated from 44 GSC orthotopic xenografts, 125 nM predimerized VH-9.7
# [2] = target: VH-9.7 antigen on human patient-derived glioblastoma stem-like cells (GSC lines 12.1, 22, 33, 44, 99); assay: flow cytometry titration of monomeric VH-9.7 on live 33 GSC, one-site equilibrium fit, four independent titrations
binder,measurement,setting,value
"VH-9.7-CMYC-HIS6 (soluble, purified single domain antibody VH-9.7) (antibody, V domains shown) VH: QVQLVESEAEVKKPGASVKVSCKASGYSFTNYYMHWVRQAPGQGLEWMGLIDPSGTSTTYAQKFQGRVTMTRDTSASTVYMELTSLRSEDTAMYYCVGEESGSGSFSDWGQGTLVTVSS",percent of cells labelled,[1],17.9%
same,Kd,[2],74.3 nM
